Results on five molecules are retold here after patent US20050049403A1 (CAMBRIDGE ANTIBODY TECHNOLOGY, published 2005).

For assay [1], the target named is T1, TGFβ3 (UniProt P10600 301-412).
T1 sequence (looked up): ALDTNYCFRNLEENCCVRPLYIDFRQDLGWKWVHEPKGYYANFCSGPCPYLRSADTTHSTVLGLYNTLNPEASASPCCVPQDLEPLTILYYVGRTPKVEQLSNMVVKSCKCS
As to the kind of experiment: A549 cell radioreceptor assay (nM IgG).

The target in assay [2] is T2, recombinant human TGFβ1 (human, UniProt P01137 279-390). The experiment in a line: A549 cell radioreceptor assay (nM IgG).
For assay [3], the target named is T1, TGFβ3. As to the kind of experiment: cell-based or functional assay.
Assay [4] has as its target T3, recombinant human TGFβ2 (human, UniProt P61812 303-414).
T3 sequence (looked up): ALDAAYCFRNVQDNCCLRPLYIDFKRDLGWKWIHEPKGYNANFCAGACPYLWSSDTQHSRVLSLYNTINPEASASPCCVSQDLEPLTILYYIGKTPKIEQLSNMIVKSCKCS
The experiment in a line: cell-based or functional assay.

For assay [5], the target named is T3, recombinant human TGFβ2. The experiment in a line: A549 cell radioreceptor assay (nM IgG). On the procedure: (§1) Aliqouts of ¹²⁵I-TGFβ1 or TGFβ2 (70-90 TBq/mmol; Amersham International) at 20 pM are preincubated with antibody in binding medium at room temperature for 1 h. Duplicate samples of 0.5 ml of TGFβ/antibody mixtures are then added to the cell monlayers and are incubated at 37° C. for 1-2 h. Control wells contain TGFβ only. Unbound TGFβ is removed by washing 4 times with Hank's balanced salt solution containing 0.1% BSA. Cells are solubilised in 0.8 ml 25 mM Tris HCl pH 7.5, 10% glycerol, 1% Triton X-100 at room temperature for 20 min. The contents of each well are removed and ¹²⁵I measured in a gamma counter.
The ability of 6B1 IgG4 to inhibit binding of TGFβ isoforms to receptors was measured in a radioreceptor assay as described in example 4.

Assay [6] has as its target T2, recombinant human TGFβ1. The experiment in a line: cell-based or functional assay.
Assay [7] deals with lysozyme (coated onto a BIACore sensor chip) (Gallus gallus (Chicken), UniProt P00698 19-147). The experiment in a line: BIACore, lysozyme coated on the sensor chip. A general note: SPR reads the build-up and loss of mass on a sensor chip optically.
Assay [8] has as its target T2, recombinant human TGFβ1. The experiment in a line: radioreceptor assay, inhibition of 125I-TGFβ1 binding to A549 cells; concentration of antibody combining sites. On the procedure:
(§2) Cells are seeded at 1-2×10^5 cells/ml/well into the wells of 24-well cluster plates and grown for 24 h in serum-free DMEM. Cell monlayers are washed twice with serum-free DMEM and 0.5 ml binding medium (DMEM/Hams F12 (Sigma D-6421) containing 0.1% (v/v) BSA added to each well.
as §1

Assay [9] concerns the target T2, recombinant human TGFβ1. The experiment in a line: BIACore, method of Karlsson et al.
Assay [10] addresses T3, recombinant human TGFβ2. As to the kind of experiment: BIACore, antigen on the chip.
Assay [11] concerns the target T2, recombinant human TGFβ1. As to the kind of experiment: specificity ELISA, TGFβ coated at 0.2 µg/ml. On the procedure:
Clones identified as binding TGFβ-1 rather an uncoated well, as described above, were further analysed for fine specificity. […] Microtitre plate wells were coated with 50 μl of either 0.2 μg/ml TGFβ1, 0.2 μg/ml TGFβ-2, 10 μg/ml bovine serum albumin (BSA) or PBS (the uncoated well). After preblocking both the phage (or soluble scFv) and the microtitre plates, 50 μl blocked phage (or soluble scFv) from each clone was added to a well coated with either TGFβ-1, TGFβ-2, BSA or an uncoated well. As above, alkaline phosphatse activity was visualised using either the chromagenic substrate pNPP (Sigma) or the Ampak system (Dako). […]
Background: ELISA stands for enzyme-linked immunosorbent assay.

For assay [12], the target named is T3, recombinant human TGFβ2. As to the kind of experiment: cell-based or functional assay. The source holds these as a separate data set.
Assay [13] addresses T3, recombinant human TGFβ2. As to the kind of experiment: cell-based or functional assay. The source holds these as a separate data set.
Assay [14] has as its target T3, recombinant human TGFβ2. As to the kind of experiment: radioreceptor assay, inhibition of 125I-TGFβ2 binding to A549 cells; concentration of antibody combining sites. On the procedure:
as §2, §1

The target of assay [15] is T3, recombinant human TGFβ2. The experiment in a line: BIACore, method of Karlsson et al.
The target of assay [16] is T1, TGFβ3. The experiment in a line: BIACore, antigen coated on the sensor chip.
For assay [17], the target named is T2, recombinant human TGFβ1. The experiment in a line: BIACore, antigen coated on the sensor chip.
Assay [18] addresses T4, chicken egg white trypsin inhibitor (chicken, UniProt P01005 25-210).
T4 sequence (looked up): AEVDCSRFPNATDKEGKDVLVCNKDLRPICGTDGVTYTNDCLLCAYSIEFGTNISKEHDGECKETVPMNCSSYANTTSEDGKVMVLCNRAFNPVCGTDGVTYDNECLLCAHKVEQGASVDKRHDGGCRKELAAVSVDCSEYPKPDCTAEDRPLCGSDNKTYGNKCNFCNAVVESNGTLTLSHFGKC
The experiment in a line: ELISA, antigen coated at 10 µg/ml, anti-human Fc alkaline phosphatase conjugate, OD405 nm [b]. On the procedure: (§3) For both FIG. 13(a) and FIG. 13(b), antigens 1 to 15 were used for coating the plate at a concentration of 10 μg/ml in PBS. The TGFbetas were coated at 0.2 μg/ml in PBS. Coating was performed at 4° C. overnight. […] of each antigen was used per well and duplicates of each antigen for each IgG to be tested. IgG samples were incubated with the coated antigens at 37° C. for 2 hours after blocking with 2%. marvel-PBS. The labelled second antibody was a mouse anti-human Fc1 alkaline phosphatase conjugated and the substrate used to detect bound second antibody was PNPP at 1 mg/ml with the absorbance read at 405 nm.

The target of assay [19] is oxazolone-bovine serum albumin (bovine, UniProt P02769 25-607, oxazolone hapten coupled, sites not stated). Described as above. On the procedure: as §3
Assay [20] has as its target T5, ovalbumin (UniProt P01012 2-386).
T5 sequence (looked up): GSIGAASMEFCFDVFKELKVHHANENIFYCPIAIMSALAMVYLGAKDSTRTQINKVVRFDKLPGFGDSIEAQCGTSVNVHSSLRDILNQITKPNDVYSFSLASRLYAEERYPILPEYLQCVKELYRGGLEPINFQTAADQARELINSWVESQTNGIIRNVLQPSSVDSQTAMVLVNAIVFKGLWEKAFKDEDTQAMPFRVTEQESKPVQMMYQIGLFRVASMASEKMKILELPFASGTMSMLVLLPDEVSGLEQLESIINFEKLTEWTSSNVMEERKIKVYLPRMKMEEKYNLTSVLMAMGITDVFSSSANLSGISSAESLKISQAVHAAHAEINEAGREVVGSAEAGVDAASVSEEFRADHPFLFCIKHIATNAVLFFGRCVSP
The assay is described as above. On the procedure: as §3

Assay [21] deals with T6, human lymphotoxin (TNFβ) (human, UniProt P01374 35-205, limits assumed).
T6 sequence (looked up): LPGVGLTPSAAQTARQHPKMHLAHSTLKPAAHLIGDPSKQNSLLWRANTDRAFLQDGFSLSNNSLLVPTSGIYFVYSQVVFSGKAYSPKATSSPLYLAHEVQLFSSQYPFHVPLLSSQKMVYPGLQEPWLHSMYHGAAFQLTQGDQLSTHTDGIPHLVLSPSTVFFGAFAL
The assay is described as above. On the procedure:
as §3

For assay [22], the target named is human insulin (human, UniProt P01308 25-54; P01308 90-110, limits assumed). The description is as above. On the procedure: as §3
The target in assay [23] is hen egg lysozyme (hen, UniProt P00698 19-147). Described as above. On the procedure:
as §3

For assay [24], the target named is human serum albumin (human, UniProt P02768 25-609). Described as above. On the procedure: as §3
In assay [25] the target is T7, bovine serum albumin (bovine, UniProt P02769 25-607).
T7 construct: also called BSA
The assay is described as above. On the procedure:
as §3

The IC50 is the midpoint of a concentration-inhibition curve. A word on the Kd: it is the equilibrium constant for the complex coming apart.

T2 sequence (P01137 279-390 limits assumed): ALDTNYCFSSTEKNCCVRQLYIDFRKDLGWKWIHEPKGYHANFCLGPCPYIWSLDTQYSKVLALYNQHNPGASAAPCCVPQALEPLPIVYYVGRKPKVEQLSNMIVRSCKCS
Chain of human serum albumin (P02768 25-609 limits assumed): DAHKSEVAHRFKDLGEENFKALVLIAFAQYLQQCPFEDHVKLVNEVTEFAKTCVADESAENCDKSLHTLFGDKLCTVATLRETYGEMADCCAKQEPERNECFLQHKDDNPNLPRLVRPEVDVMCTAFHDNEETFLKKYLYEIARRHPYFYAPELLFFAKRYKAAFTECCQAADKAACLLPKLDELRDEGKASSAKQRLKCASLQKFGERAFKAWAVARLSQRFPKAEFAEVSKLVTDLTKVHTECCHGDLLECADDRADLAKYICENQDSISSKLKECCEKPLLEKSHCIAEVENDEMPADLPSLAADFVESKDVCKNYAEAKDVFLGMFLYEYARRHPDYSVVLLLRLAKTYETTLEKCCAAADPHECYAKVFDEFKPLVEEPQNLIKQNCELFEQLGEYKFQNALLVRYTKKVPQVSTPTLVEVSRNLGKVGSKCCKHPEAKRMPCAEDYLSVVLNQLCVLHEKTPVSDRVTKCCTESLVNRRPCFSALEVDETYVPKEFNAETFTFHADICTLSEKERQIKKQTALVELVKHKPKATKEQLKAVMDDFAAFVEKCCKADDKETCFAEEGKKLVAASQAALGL
T7 sequence (P02769 25-607 limits assumed): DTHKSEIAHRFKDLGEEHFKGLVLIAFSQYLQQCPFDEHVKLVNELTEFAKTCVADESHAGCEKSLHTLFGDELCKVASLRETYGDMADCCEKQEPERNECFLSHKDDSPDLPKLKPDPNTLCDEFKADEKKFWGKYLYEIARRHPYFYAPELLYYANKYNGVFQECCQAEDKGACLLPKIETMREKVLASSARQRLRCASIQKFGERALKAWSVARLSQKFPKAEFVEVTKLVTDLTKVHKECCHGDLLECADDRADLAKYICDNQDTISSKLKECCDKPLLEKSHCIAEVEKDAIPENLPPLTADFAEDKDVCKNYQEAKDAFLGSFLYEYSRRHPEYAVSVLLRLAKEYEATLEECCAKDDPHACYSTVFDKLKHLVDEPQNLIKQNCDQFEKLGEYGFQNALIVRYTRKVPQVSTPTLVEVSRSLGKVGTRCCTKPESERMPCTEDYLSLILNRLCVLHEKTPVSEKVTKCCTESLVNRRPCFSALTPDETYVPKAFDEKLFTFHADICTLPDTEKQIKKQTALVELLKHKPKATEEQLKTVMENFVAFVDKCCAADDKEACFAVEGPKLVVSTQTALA
Chain of oxazolone-bovine serum albumin (P02769 25-607 limits assumed): as above
Chain of human insulin (P01308 25-54 limits assumed, chain 1 of 2): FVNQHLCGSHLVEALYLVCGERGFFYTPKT
Chain of human insulin (P01308 90-110 limits assumed, chain 2 of 2): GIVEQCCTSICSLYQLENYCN
Chain of lysozyme (coated onto a BIACore sensor chip) (P00698 19-147 limits assumed): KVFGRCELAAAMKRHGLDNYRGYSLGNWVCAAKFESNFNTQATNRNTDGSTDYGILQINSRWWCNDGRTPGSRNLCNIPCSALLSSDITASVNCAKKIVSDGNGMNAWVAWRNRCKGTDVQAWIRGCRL
Chain of hen egg lysozyme (P00698 19-147): as the sequence (P00698 19-147 limits assumed) above

Turning to “Mouse anti-TGFβ1,2,3 monoclonal antibody from Genzyme”, the IC50 turned out to be 0.03 nM in assay [1], 0.55 nM in assay [2] and 0.5 nM in assay [5]. Further, the values for the TF1 cell proliferation assay IC50 (nM IgG) in [3], in [4] and in assay [6] were 0.1 nM, 10 nM and 1.5 nM, respectively.

B1: 27C1/10A6 IgG4 (antibody, V domains shown)
VH: QVQLVESGGGVVQPGRSLRLSCAASGLTFSSYDMHWVRQPPAKGLEWVAVISYDGSSKYYADSVKGRFTISRDNSKNTLYLQMNSLRAEDTAVYYCARTGEYSGYDTSGVELWGQGTTVTVSS
VL: HVILTQDPAVSVALGQTVRITCQGDSLKSYYASWYQQKPGQAPVLVIYGENSRPSGIPDRFSGSSSGNTASLTITGAQAEDEADYYCNSRDSSGTHLEVFGGGTKLTVLG
notes: Whole antibody: human gamma 4 constant region (pG4D100) and human lambda constant region (pLN10), made in CHO cells
In the case of B1, in [7], the binding result is on record as “no binding”. Also, in [8], the IC50 turned out to be 9 nM. For the same molecule, the Kd in [9] is around 5 nM. Also, the “fold higher dissociation constant compared to TGFβ1” value in [10] was at least 10 fold.

B2: 10A6 scFv (scFv)
scFv: QVQLVESGGGVVQPGRSLRLSCAASGFTFSSYGMHWVRQAPGKGLEWVAVISYDGSNKYYADSVKGRFTISRDNSKNTLYLQMNSLRAEDTAVYYCAKTGEYSGYDSSGVDVWGKGTTVTVSSGGGGSGGGGSGGGGSHVILTQDPAVSVALGQTVRITCQGDSLKSYYASWYQQKPGQAPVLVIYGENSRPSGIPDRFSGSSSGNTASLTITGAQAEDEADYYCNSRDSSGTHLEVFGGGTKLTVLG
notes: Light chain shuffle of 1-B2
As for B2, in [11], the “ELISA signal, fold over the signal on TGFβ2 and TGFβ3” value is at least 5 fold.

B3: 6H1 IgG4 (antibody, V domains shown)
VH: EVQLVESGGGVVQPGRSLRLSCAASGFTFSSYGMHWVRQAPGKGLEWVAVIWYDGSNKYYADSVKGRFTISRDNSKNTLYLQMDSLRAEDTAVYYCGRTLESSLWGQGTLVTVSS
VL: DVVMTQSPSSLSASVGDRVTITCRASQGISNYLAWYQQKPGKAPKLLIYKASTLESGVPSRFSGSGSGTEFTLTISSLQPEDFATYYCQQSYSTPRTFGQGTKVDIKR
notes: Whole antibody: human gamma 4 and human kappa constant regions (pG4D100, pKN100), CHO cells
On to B3, for which the figures for the “IC50 in TF1 cell proliferation assay, 100 pM TGFβ isoform” value in assay [3] and in assay [12] were around 20 nM and 12 nM, respectively. In assay [12], the “IC50 in TF1 neutralisation assay, 6H1 IgG4 from a CHO cell line” value is 15 nM. Further, in [13], the “I.C.50 in TF1 assay (neutralisation of TGFβ2 inhibition of TF1 cell proliferation)” value amounted to 100 nM. The IC50 in assay [14] was around 10 nM. In assay [15], the Kd was around 2 nM. The binding result in assay [16] and in [17] was “no binding” in each case.

B4: 6A5 IgG4 (antibody, V domains shown)
VH: EVQLVESGGGVVQPGRSLRLSCAASGFTFSSYGMHWVRQAPGKGLEWVAVIWYDGSNKYYADSVKGRFTISRDNSKNTLYLQMDSLRAEDTAVYYCGRTLESSLWGQGTLVTVSS
VL: SSELTQDPAVSVALGQTVRITCQGDSLRSYYASWYQQKPGQAPVLVIYGKNNRPSGIPDRFAGSNSGNTASLTITGAQAEDEADYYCSSRDSSGNHVVFGGGTKLTVLG
notes: Whole antibody: human gamma 4 and human lambda constant regions (pG4D100, pLN10), CHO cells
Regarding B4, the “I.C.50 in TF1 assay (neutralisation of TGFβ2 inhibition of TF1 cell proliferation)” value in [13] stood at 150 nM. The IC50 in assay [14] was around 6 nM. Further, the binding result in assay [18], in assay [19], in [20], in assay [21], in [22] and in assay [23] was “no binding” in each case. The binding result in assay [24] and in assay [25] was “no binding” in each case.
